Test results from patent publication US20180282373.

B1: GST-tagged MLL3 Win-SET domain, MLL3(4689-4911), R4710A (protein)
chain: FRYGRNPLMELPLAVNPTGCAASEPKMSAHVKRFVLRPHTLNSTSTSKSFQSTVTGELNAPYSKQFVHSKSSQYRKMKTEWKSNVYLARSRIQGLGLYAARDIEKHTMVIEYIGTIIRNEVANRKEKLYESQNRGVYMFRMDNDHVIDATLTGGPARYINHSCAPNCVAEVVTFERGHKIIISSSRRIQKGEELCYDYKFDFEDDQHKIPCHCGAVNCRKWMN
B2: GST-tagged SETd1B Win-SET domain, Setd1B(1727-1966), R1748A (protein)
chain: LSSAKKKKRDDGIREHVTGCAASEGFYTIDKKDKLRYLNSSRASTDEPPADTQGMSIPAQPHASTRAGSERRSEQRRLLSSFTGSCDSDLLKFNQLKFRKKKLKFCKSHIHDWGLFAMEPIAADEMVIEYVGQNIRQVIADMREKRYEDEGIGSSYMFRVDHDTIIDATKCGNFARFINHSCNPNCYAKVITVESQKKIVIYSKQHINVNEEITYDYKFPIEDVKIPCLCGSENCRGTLN

Target: purified recombinant full-length WDR5, P61964

Row | Protein | core complex methyltransferase activity, H3K4me0 peptide, mutant against wild type | core complex methyltransferase activity, H3K4me1 and H3K4me2 peptides, mutant against wild type
1 | B1 | approximately 2-fold more activity than the wild-type MLL3 core complex | –
2 | B2 | – | showed similar amounts of activity compared to that of their wild-type counterparts
